B1: Azoarcus group I ribozyme (parent)
chain: GUGCCUUGCGCCGGGAAACCACGCAAGGGAUGGUGUCAAAUUCGGCGAAACCUAAGCGCCCGCCCGGGCGUAUGGCAACGCCGAGCCAAGCUUCGGCGCCUGCGCCGAUGAAGGUGUAGAGACUAGACGGCACCCACCUAAGGCAAACGCUAUGGUGAAGGCAUAGUCCAGGGAGUGGCGAAAGUCACACAAACCGG

Variants of: B1
Test: reverse-splicing fitness (ratio to wild type); higher = more active; in vitro selection; Mg2+ level not given
Summary of the method: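 An in vitro group I ribozyme library with randomized positions was T7-transcribed and gel-purified. In triplicate, 10 pmol RNA in EPPS pH 7.5 was reacted with 50 pmoles of a 30-nt RNA substrate for 1 h at 37 °C across several added MgCl2 levels (1–48 mM), then stopped with EDTA. Products were reverse transcribed from a substrate-complementary primer, PCR-amplified and sequenced (HiSeq 4000). Fitness is a variant's read proportion after selection over that before, normalised to wild type.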

Variant | reverse-splicing fitness
GUGCCUUGCGCCGGGAAACCACGCAAGGGAUGGUGUCAAAUUCGGCGAAACCUAAGCGCCCGCCCGGGCGUAUGGCAACGCCGAGCCAAGCUUCGGCGCCUGCGCCGAUGAAGGUGUAGAGACUAGACGGCACCCACCUAAGGCUAACGUUAUGGUGAAGGCAUAGUCCAGGGAGUGGCGAAAGUCACACAAACCGG | 0.943
GUGCCUUGCGCCGGGAAACCACGCAAGGGAUGGUGUCAAAUUCGGCGAAACCUAAGCGCCCGCCCGGGCGUAUGGCAACGCCGAGCCAAGCUUCGGCGCCUGCGCCGAUGAAGGUGUAGAGACUAGACGGCACCCACCUAAGGCUAACGUUAUGGUGAAGGCAUAGUCUAGGGAGAGGCGAAAGUCACACAAACCGG | 0.0998
GUGCCUUGCGCCGGGAAACCACGCAAGGGAUGGUGUCAAAUUCGGCGAAACCUAAGCGCCCGCCCGGGCGUAUGGCAACGCCGAGCCAAGCUUCGGCGCCUGCGCCGAUGAAGGUGUAGAGACUAGACGGCACCCACCUAAGGCUAACGUUAUGGUGAAGGCAUAGUCUAGGGAGGGGCGAAAGUCACACAAACCGG | 0.0111
GUGCCUUGCGCCGGGAAACCACGCAAGGGAUGGUGUCAAAUUCGGCGAAACCUAAGCGCCCGCCCGGGCGUAUGGCAACGCCGAGCCAAGCUUCGGCGCCUGCGCCGAUGAAGGUGUAGAGACUAGACGGCACCCACCUAAGGCUAACGUUAUGGUGAAGGCAUAGUCUAGGGAGCGGCGAAAGUCACACAAACCGG | 0.141
GUGCCUUGCGCCGGGAAACCACGCAAGGGAUGGUGUCAAAUUCGGCGAAACCUAAGCGCCCGCCCGGGCGUAUGGCAACGCCGAGCCAAGCUUCGGCGCCUGCGCCGAUGAAGGUGUAGAGACUAGACGGCACCCACCUAAGGCUAACGUUAUGGUGAAGGCAUAGUCGAGGGAGAGGCGAAAGUCACACAAACCGG | 0.0606
GUGCCUUGCGCCGGGAAACCACGCAAGGGAUGGUGUCAAAUUCGGCGAAACCUAAGCGCCCGCCCGGGCGUAUGGCAACGCCGAGCCAAGCUUCGGCGCCUGCGCCGAUGAAGGUGUAGAGACUAGACGGCACCCACCUAAGGCUAACGUUAUGGUGAAGGCAUAGUCGAGGGAGCGGCGAAAGUCACACAAACCGG | 0.0907
GUGCCUUGCGCCGGGAAACCACGCAAGGGAUGGUGUCAAAUUCGGCGAAACCUAAGCGCCCGCCCGGGCGUAUGGCAACGCCGAGCCAAGCUUCGGCGCCUGCGCCGAUGAAGGUGUAGAGACUAGACGGCACCCACCUAAGGCUAACGUUAUGGUGAAGGCAUAGUCGAGGGAGGGGCGAAAGUCACACAAACCGG | 0.008
GUGCCUUGCGCCGGGAAACCACGCAAGGGAUGGUGUCAAAUUCGGCGAAACCUAAGCGCCCGCCCGGGCGUAUGGCAACGCCGAGCCAAGCUUCGGCGCCUGCGCCGAUGAAGGUGUAGAGACUAGACGGCACCCACCUAAGGCUAACGUUAUGGUGAAGGCAUAGUCAAGGGAGUGGCGAAAGUCACACAAACCGG | 0.106
GUGCCUUGCGCCGGGAAACCACGCAAGGGAUGGUGUCAAAUUCGGCGAAACCUAAGCGCCCGCCCGGGCGUAUGGCAACGCCGAGCCAAGCUUCGGCGCCUGCGCCGAUGAAGGUGUAGAGACUAGACGGCACCCACCUAAGGCUAACGUUAUGGUGAAGGCAUAGUCUAGGGAGUGGCGAAAGUCACACAAACCGG | 0.312
GUGCCUUGCGCCGGGAAACCACGCAAGGGAUGGUGUCAAAUUCGGCGAAACCUAAGCGCCCGCCCGGGCGUAUGGCAACGCCGAGCCAAGCUUCGGCGCCUGCGCCGAUGAAGGUGUAGAGACUAGACGGCACCCACCUAAGGCUAACGUUAUGGUGAAGGCAUAGUCGAGGGAGUGGCGAAAGUCACACAAACCGG | 0.215
GUGCCUUGCGCCGGGAAACCACGCAAGGGAUGGUGUCAAAUUCGGCGAAACCUAAGCGCCCGCCCGGGCGUAUGGCAACGCCGAGCCAAGCUUCGGCGCCUGCGCCGAUGAAGGUGUAGAGACUAGACGGCACCCACCUAAGGCUAACGCUAUGGUGAAGGCAUAGUCUAGGGAGCGGCGAAAGUCACACAAACCGG | 0.149
GUGCCUUGCGCCGGGAAACCACGCAAGGGAUGGUGUCAAAUUCGGCGAAACCUAAGCGCCCGCCCGGGCGUAUGGCAACGCCGAGCCAAGCUUCGGCGCCUGCGCCGAUGAAGGUGUAGAGACUAGACGGCACCCACCUAAGGCUAACGCUAUGGUGAAGGCAUAGUCUAGGGAGAGGCGAAAGUCACACAAACCGG | 0.109
GUGCCUUGCGCCGGGAAACCACGCAAGGGAUGGUGUCAAAUUCGGCGAAACCUAAGCGCCCGCCCGGGCGUAUGGCAACGCCGAGCCAAGCUUCGGCGCCUGCGCCGAUGAAGGUGUAGAGACUAGACGGCACCCACCUAAGGCUAACGCUAUGGUGAAGGCAUAGUCUAGGGAGGGGCGAAAGUCACACAAACCGG | 0.013
GUGCCUUGCGCCGGGAAACCACGCAAGGGAUGGUGUCAAAUUCGGCGAAACCUAAGCGCCCGCCCGGGCGUAUGGCAACGCCGAGCCAAGCUUCGGCGCCUGCGCCGAUGAAGGUGUAGAGACUAGACGGCACCCACCUAAGGCUAACGUUAUGGUGAAGGCAUAGUCCAGGGAGAGGCGAAAGUCACACAAACCGG | 0.908
GUGCCUUGCGCCGGGAAACCACGCAAGGGAUGGUGUCAAAUUCGGCGAAACCUAAGCGCCCGCCCGGGCGUAUGGCAACGCCGAGCCAAGCUUCGGCGCCUGCGCCGAUGAAGGUGUAGAGACUAGACGGCACCCACCUAAGGCUAACGUUAUGGUGAAGGCAUAGUCCAGGGAGGGGCGAAAGUCACACAAACCGG | 0.342
GUGCCUUGCGCCGGGAAACCACGCAAGGGAUGGUGUCAAAUUCGGCGAAACCUAAGCGCCCGCCCGGGCGUAUGGCAACGCCGAGCCAAGCUUCGGCGCCUGCGCCGAUGAAGGUGUAGAGACUAGACGGCACCCACCUAAGGCUAACGUUAUGGUGAAGGCAUAGUCCAGGGAGCGGCGAAAGUCACACAAACCGG | 0.816
GUGCCUUGCGCCGGGAAACCACGCAAGGGAUGGUGUCAAAUUCGGCGAAACCUAAGCGCCCGCCCGGGCGUAUGGCAACGCCGAGCCAAGCUUCGGCGCCUGCGCCGAUGAAGGUGUAGAGACUAGACGGCACCCACCUAAGGCUAACGGUAUGGUGAAGGCAUAGUCCAGGGAGGGGCGAAAGUCACACAAACCGG | 0.108
GUGCCUUGCGCCGGGAAACCACGCAAGGGAUGGUGUCAAAUUCGGCGAAACCUAAGCGCCCGCCCGGGCGUAUGGCAACGCCGAGCCAAGCUUCGGCGCCUGCGCCGAUGAAGGUGUAGAGACUAGACGGCACCCACCUAAGGCUAACGCUAUGGUGAAGGCAUAGUCGAGGGAGGGGCGAAAGUCACACAAACCGG | 0.00761
GUGCCUUGCGCCGGGAAACCACGCAAGGGAUGGUGUCAAAUUCGGCGAAACCUAAGCGCCCGCCCGGGCGUAUGGCAACGCCGAGCCAAGCUUCGGCGCCUGCGCCGAUGAAGGUGUAGAGACUAGACGGCACCCACCUAAGGCUAACGCUAUGGUGAAGGCAUAGUCGAGGGAGCGGCGAAAGUCACACAAACCGG | 0.133
GUGCCUUGCGCCGGGAAACCACGCAAGGGAUGGUGUCAAAUUCGGCGAAACCUAAGCGCCCGCCCGGGCGUAUGGCAACGCCGAGCCAAGCUUCGGCGCCUGCGCCGAUGAAGGUGUAGAGACUAGACGGCACCCACCUAAGGCUAACGCUAUGGUGAAGGCAUAGUCGAGGGAGAGGCGAAAGUCACACAAACCGG | 0.0717
GUGCCUUGCGCCGGGAAACCACGCAAGGGAUGGUGUCAAAUUCGGCGAAACCUAAGCGCCCGCCCGGGCGUAUGGCAACGCCGAGCCAAGCUUCGGCGCCUGCGCCGAUGAAGGUGUAGAGACUAGACGGCACCCACCUAAGGCUAACGCUAUGGUGAAGGCAUAGUCAAGGGAGGGGCGAAAGUCACACAAACCGG | 0.00543
GUGCCUUGCGCCGGGAAACCACGCAAGGGAUGGUGUCAAAUUCGGCGAAACCUAAGCGCCCGCCCGGGCGUAUGGCAACGCCGAGCCAAGCUUCGGCGCCUGCGCCGAUGAAGGUGUAGAGACUAGACGGCACCCACCUAAGGCUAACGCUAUGGUGAAGGCAUAGUCAAGGGAGAGGCGAAAGUCACACAAACCGG | 0.0255
GUGCCUUGCGCCGGGAAACCACGCAAGGGAUGGUGUCAAAUUCGGCGAAACCUAAGCGCCCGCCCGGGCGUAUGGCAACGCCGAGCCAAGCUUCGGCGCCUGCGCCGAUGAAGGUGUAGAGACUAGACGGCACCCACCUAAGGCUAACGCUAUGGUGAAGGCAUAGUCAAGGGAGCGGCGAAAGUCACACAAACCGG | 0.0523
GUGCCUUGCGCCGGGAAACCACGCAAGGGAUGGUGUCAAAUUCGGCGAAACCUAAGCGCCCGCCCGGGCGUAUGGCAACGCCGAGCCAAGCUUCGGCGCCUGCGCCGAUGAAGGUGUAGAGACUAGACGGCACCCACCUAAGGCUAACGCUAUGGUGAAGGCAUAGUCAAGGGAGUGGCGAAAGUCACACAAACCGG | 0.173
GUGCCUUGCGCCGGGAAACCACGCAAGGGAUGGUGUCAAAUUCGGCGAAACCUAAGCGCCCGCCCGGGCGUAUGGCAACGCCGAGCCAAGCUUCGGCGCCUGCGCCGAUGAAGGUGUAGAGACUAGACGGCACCCACCUAAGGCUAACGCUAUGGUGAAGGCAUAGUCGAGGGAGUGGCGAAAGUCACACAAACCGG | 0.3
GUGCCUUGCGCCGGGAAACCACGCAAGGGAUGGUGUCAAAUUCGGCGAAACCUAAGCGCCCGCCCGGGCGUAUGGCAACGCCGAGCCAAGCUUCGGCGCCUGCGCCGAUGAAGGUGUAGAGACUAGACGGCACCCACCUAAGGCUAACGCUAUGGUGAAGGCAUAGUCUAGGGAGUGGCGAAAGUCACACAAACCGG | 0.407
GUGCCUUGCGCCGGGAAACCACGCAAGGGAUGGUGUCAAAUUCGGCGAAACCUAAGCGCCCGCCCGGGCGUAUGGCAACGCCGAGCCAAGCUUCGGCGCCUGCGCCGAUGAAGGUGUAGAGACUAGACGGCACCCACCUAAGGCUAACGUUAUGGUGAAGGCAUAGUCAAGGGAGAGGCGAAAGUCACACAAACCGG | 0.0236
GUGCCUUGCGCCGGGAAACCACGCAAGGGAUGGUGUCAAAUUCGGCGAAACCUAAGCGCCCGCCCGGGCGUAUGGCAACGCCGAGCCAAGCUUCGGCGCCUGCGCCGAUGAAGGUGUAGAGACUAGACGGCACCCACCUAAGGCUAACGUUAUGGUGAAGGCAUAGUCAAGGGAGGGGCGAAAGUCACACAAACCGG | 0.00551
GUGCCUUGCGCCGGGAAACCACGCAAGGGAUGGUGUCAAAUUCGGCGAAACCUAAGCGCCCGCCCGGGCGUAUGGCAACGCCGAGCCAAGCUUCGGCGCCUGCGCCGAUGAAGGUGUAGAGACUAGACGGCACCCACCUAAGGCUAACGUUAUGGUGAAGGCAUAGUCAAGGGAGCGGCGAAAGUCACACAAACCGG | 0.04
GUGCCUUGCGCCGGGAAACCACGCAAGGGAUGGUGUCAAAUUCGGCGAAACCUAAGCGCCCGCCCGGGCGUAUGGCAACGCCGAGCCAAGCUUCGGCGCCUGCGCCGAUGAAGGUGUAGAGACUAGACGGCACCCACCUAAGGCUAACGCUAUGGUGAAGGCAUAGUCCAGGGAGAGGCGAAAGUCACACAAACCGG | 0.937

— the RNAGym collection of RNA variant scans (doi:10.1093/molbev/msab373)
